Test [1] addresses recombination human PD-1 extracellular protein (Sino Biological Inc.) (human) (UniProt Q15116). The experiment in a line: competitive ELISA, plate coated with human PD-1 protein; competitor biotin-hAb21.
The target in test [2] is T1, human PD-1 on cells (CHO cells stably expressing human PD-1) (human, UniProt Q15116 25-288).
T1 construct: whole, on cells; also called CHO/PD-1; CHO-PD-1
Description: flow cytometry on CHO/PD-1 cells. (In flow cytometry, cells or beads pass a laser one at a time.)

T1 sequence (Q15116 25-288): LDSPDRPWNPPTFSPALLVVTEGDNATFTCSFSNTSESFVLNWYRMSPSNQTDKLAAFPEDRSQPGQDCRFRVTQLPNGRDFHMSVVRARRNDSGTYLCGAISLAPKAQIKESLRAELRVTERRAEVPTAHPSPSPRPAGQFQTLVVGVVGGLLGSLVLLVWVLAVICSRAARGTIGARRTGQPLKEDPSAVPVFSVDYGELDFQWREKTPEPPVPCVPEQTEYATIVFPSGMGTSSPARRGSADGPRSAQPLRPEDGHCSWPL
recombination human PD-1 extracellular protein (Sino Biological Inc.) (human), sequence (Q15116 25-170): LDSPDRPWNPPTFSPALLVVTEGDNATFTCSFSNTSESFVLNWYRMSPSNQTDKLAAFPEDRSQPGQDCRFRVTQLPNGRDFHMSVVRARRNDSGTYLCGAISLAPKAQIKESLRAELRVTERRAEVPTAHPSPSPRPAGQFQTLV

Consider “MK3475+Nivo (Nivolumab and MK3475 added together)”, for which the antagonizing/inhibiting ratio in test [1] worked out at 70%.

B1: human PDL2-Fc fusion protein (Fc fusion, UniProt Q9BQ51 20-219, looked up, not shown: a dimerising Fc or GST)
chain: LFTVTVPKELYIIEHGSNVTLECNFDTGSHVNLGAITASLQKVENDTSPHRERATLLEEQLPLGKASFHIPQVQVRDEGQYQCIIIYGVAWDYKYLTLKVKASYRKINTHILKVPETDEVELTCQATGYPLAEVSWPNVSVPANTSHSRTPEGLYQVTSVLRLKPPPGRNFSCVFWNTHVRELTLASIDLQSQMEPRTHP
notes: also called biotin-PDL2-Fc; Biotin-PDL2Fc
For the molecule B1, the binding result in test [2] was “binds”.

Source of the values: US20200277376A1 (SUZHOU STAINWEI BIOTECH, published 2020).
